# Article PMC12439769, “Case of Nisin Oral Ingestion and its LC-MS/MS Detection in Human Urine Over Time: A Case Report” (Archives of clinical and medical case reports, 2025)
# No end group written: not given here.
# Tests used:
# [1] = LC-MS/MS (PRM) detection of nisin in human urine after oral ingestion; format: in vivo
# Protocol: (§1) Nisin ZP (Handary S.A; Brussels, Belgium) was ingested by a healthy volunteer. […] Sterile urine was then collected at 4 pm (Sample 1) and 8 pm (Sample 2) on the first day of ingestion, and at 6 am (Sample 3), 8 am (Sample 4), 3:30 pm (Sample 5), and 9 pm (Sample 6) the next day. Urine samples were frozen at −80°C immediately upon collection (Table 1).
# Six urine samples, including both standard and nisin-spiked samples, were thawed/prepared then centrifuged at 4000×g to pellet large solute materials/proteins. The supernatant from each sample was then filtered using a 10 kDa MWCO Amicon® Ultra Centrifugal Filter to further remove larger protein molecules. The filtered urine was lyophilized under stringent conditions (−50 °C and 0.1 Torr) for 48 hours to ensure complete dryness. The lyophilized cake was resuspended in 0.1% Trifluoroacetic Acid (TFA) for sample homogenization. A subsequent centrifugation step at 12000×g for 5 minutes allowed for the separation of any remaining particulate matter, with the supernatant being carefully transferred into a clean tube. The supernatant underwent desalting using C18 Stage Tips, which were prepared by equilibration in 1% TFA and 50% Acetonitrile (ACN), followed by a washing solution of 5% ACN and 0.1% TFA, and an elution in 40% ACN with 0.1% TFA. The peptides eluted were vacuum dried and then resuspended in 5% Formic Acid (FA).
# Nisin peptide abundance was measured using liquid chromatography coupled to mass spectrometry (LC-MS/MS). After reconstitution in formic acid, the samples were fractionated online by C18 reversed phase chromatography using a Dionex U3000 HPLC to deliver an increasing gradient of acetonitrile. Peptides were eluted and electrosprayed directly in a Thermofisher Fusion Lumos mass spectrometer. Data were acquired using a parallel reaction monitoring strategy in which the +5 precursor ion of full-length nisin was analyzed by MS/MS [51]. The precursor and fragment ion masses for +5 charge state of nisin utilized for Parallel Reaction Monitoring are shown in Table 2. Extracted ion chromatograms were generated for each fragment ion using the Skyline software package. The area under the curve for each fragment ion was summed to calculate an estimate of nisin abundance.
# [2] = Western blotting of nisin in urine samples after oral ingestion; format: in vivo, human
# Protocol: as §1
# The urine samples were filtered using a 10 kDa MWCO Amicon® ultra centrifugal filter (Cat No: UFC201024, Millipore). The filtrate was used to analyze nisin, while the top retained fraction was used to check for potential nisin-binding proteins that might bind to and shift nisin to a higher molecular weight.
# Western blot analyses were performed on the filtrate and top fractions from the urine samples to detect nisin and nisin binding proteins, respectively. Samples were normalized by equal protein concentration (125 μg) and then mixed with 4X Laemmli sample buffer (Cat. No. 1610747, Bio-Rad) containing β-ME (3:1). The proteins were resolved by 16% Tricine SDS-PAGE (Invitrogen, Cat No. EC6695) then transferred to Immobilon-P membranes. The blots were probed with a custom polyclonal affinity-purified rabbit nisin antibody (proprietary to Kapila lab). The antibody against nisin was produced by co-immunizing rabbits with four short nisin peptide sequences (Pacific Immunology, Ramona, CA). Blots were incubated with horseradish peroxidase-conjugated anti-rabbit antibody (SC-2004, Santa Cruz Biotechnology) and then developed with the ECL-plus detection system (Thermo Fisher Scientific).
# [3] = Tolerability of oral ingestion of nisin; format: in vivo, human; conditions: 20 grams in total, two doses of 10 grams/150 ml of water at noon and 6 pm; one healthy person
# Protocol: as §1
# [4] = cited from earlier work
# Protocol: (§2) Nisin mediates its action in part by interactions with phospholipid bilayers on cellular membranes. Prior pharmacokinetic and pharmacodynamic information indicate that nisin can be absorbed via epithelial tissues. Nisin can be absorbed through the vaginal epithelium into the circulation following intravaginal administration in rabbits. Maximum levels of nisin were detected in blood samples after 1 h of treatment. […] Further, Dreyer et al. reported the migration of nisin a ...
# [5] = tested on: gastrointestinal epithelial and vascular endothelial cells; conditions: in vitro; ref 35 (Dreyer et al.); cited from earlier work
# Protocol: as §2
# [6] = oral ingestion, encapsulated nisin and nisin powder groups, at 24, 48 and 72 hours; mass spectrometry; cited from earlier work
# Source text: Like other reports of nisin detection with LC-MS/MS, this project employed similar methods to successfully detect nisin and its fragments in urine samples [44–49]. The ongoing clinical trial (ClinicalTrials.gov; NCT06097468) of nisin in oral cancer patients and studies with larger sample sizes will be helpful to furthe ...
# [7] = rabbits, intravaginal administration
substance,measurement,setting,value
"Nisin ZP: Natural bacteriocin made by Lactococcus lactis, food preservative; Nisin ZP from Handary S.A, Brussels, Belgium (ITSISLCTPGCKTGALMGCNMKTATCNCSIHVSK; also: lantibiotic nisin-Z: thioether rings and dehydro residues not placed; UniProt P29559 24-57, looked up)",Time of maximal nisin levels detected in urine,"[1]; after first oral 10 g dose, LC-MS/MS, earliest sample collected at 4 h, n = 1 subject",4 h
same,Nisin detection in urine samples 1–4 by LC-MS/MS,"[1]; one healthy person, oral 2 x 10 g/150 ml water at noon and 6 pm, urine 4, 8, 18, 20 h after first ingestion, 10 kDa MWCO filtrate, lyophilized, C18 desalted, PRM of +5 precursor, summed fragment AUC",detected
same,Time window of nisin detection in urine after the first ingestion,"[1]; oral 10 g/150 ml at noon, second 10 g at 6 pm, LC-MS/MS, n = 1 subject, no urine collected before 4 h",4 to 20 h
same,Nisin detection in urine samples 5–6 by LC-MS/MS,"[1]; same subject and regimen, urine 27.5 and 33 h after first ingestion (21.5 and 27 h after second), PRM of +5 precursor",not
same,Time of nisin detection in urine after the second ingestion,"[1]; second oral 10 g/150 ml dose at 6 pm, LC-MS/MS, n = 1 subject",up to 14 hours
same,Nisin detection in urine samples 2 through 6 by immunoblotting,"[2]; <10 kDa filtrate, urine 8–33 h after first ingestion, anti-nisin rabbit polyclonal antibody",did not detect
same,Nisin detection at approximately 3.3 kDa in urine sample 1 by immunoblotting,"[2]; <10 kDa filtrate, urine 4 h after first ingestion, anti-nisin rabbit polyclonal antibody, 16% Tricine SDS-PAGE",detected
same,High molecular weight nisin-positive band at approximately 40 kDa in urine sample 1,"[2]; >10 kDa retained fraction, urine 4 h after first ingestion, suggests a potential nisin-binding protein",nisin-positive band
same,Tolerability of oral ingestion,[3],well tolerated without any adverse events
same,Stability in the harsh conditions of the gastric environment,[4],partially stable
same,Time at which blood levels declined to baseline,[4]; [7],12 h
same,Time of maximum levels of nisin in blood samples,[4]; [7],1 h
same,Migration across gastrointestinal epithelial and vascular endothelial cells,[5],migration of nisin across gastrointestinal epithelial and vascular endothelial cells
same,Integrity of nisin passing through the porcine gastrointestinal tract,[6],remains intact
